Source: patent US20250258165A1 (OSAKA UNIVERSITY, published 2025)

Biological target: T1, p300 (mouse, UniProt B2RWS6 2-2412)
T1 construct: whole, on cells; Endogenous protein inside fixed, permeabilised LPS-stimulated mouse spleen B cells; It was detected through a DNA barcode-labeled antibody (clone RW128)
Test: joining PCR of DNA barcode-labeled antibodies in hydrogel with NGS; LPS-stimulated mouse spleen B cells
Method: B cells collected from mouse spleen were suspended in serum-free medium. The cells were seeded on each well of fluororesin-coated glass slides (super hydrophobic printed glass slides, 10 wells, 6 mm diameter, Matsunami Glass Ind., Ltd., Cat. No. TF1006, see FIG. 6) with an adjusted density of 5000 cells/30 μL per circle. The cells were cultured in 5% CO₂ at 37° C. for 30 minutes, and the culture supernatant was removed. […] The cells were cultured in 5% CO₂ at 37° C. for 24 hours. IL-4 was used as stimulation for B-cell activation.
The joining PCR of the antibody barcodes that come in close proximity was performed using Mastercycler nexus flat (trade-name) (Eppendorf) PCR cycler. […] The PCR reaction was performed through a program consisting of six steps: step 1: 95° C., 2 minutes; step 2: (95° C., 30 seconds and 68° C., 1 minute)×10 cycles; step 3: (95° C., 30 seconds, 55° C., 30 seconds and 68° C., 1 minute)×2 cycles; step 4: (95° C., 30 seconds, 60° C., 30 seconds and 68° C., 1 minute)×16 cycles; step 5: 68° C., 1 minute; and step 6: 4° C., infinity. The samples after completion of the PCR reaction were stored at −20° C.

T1 sequence (B2RWS6 2-2412): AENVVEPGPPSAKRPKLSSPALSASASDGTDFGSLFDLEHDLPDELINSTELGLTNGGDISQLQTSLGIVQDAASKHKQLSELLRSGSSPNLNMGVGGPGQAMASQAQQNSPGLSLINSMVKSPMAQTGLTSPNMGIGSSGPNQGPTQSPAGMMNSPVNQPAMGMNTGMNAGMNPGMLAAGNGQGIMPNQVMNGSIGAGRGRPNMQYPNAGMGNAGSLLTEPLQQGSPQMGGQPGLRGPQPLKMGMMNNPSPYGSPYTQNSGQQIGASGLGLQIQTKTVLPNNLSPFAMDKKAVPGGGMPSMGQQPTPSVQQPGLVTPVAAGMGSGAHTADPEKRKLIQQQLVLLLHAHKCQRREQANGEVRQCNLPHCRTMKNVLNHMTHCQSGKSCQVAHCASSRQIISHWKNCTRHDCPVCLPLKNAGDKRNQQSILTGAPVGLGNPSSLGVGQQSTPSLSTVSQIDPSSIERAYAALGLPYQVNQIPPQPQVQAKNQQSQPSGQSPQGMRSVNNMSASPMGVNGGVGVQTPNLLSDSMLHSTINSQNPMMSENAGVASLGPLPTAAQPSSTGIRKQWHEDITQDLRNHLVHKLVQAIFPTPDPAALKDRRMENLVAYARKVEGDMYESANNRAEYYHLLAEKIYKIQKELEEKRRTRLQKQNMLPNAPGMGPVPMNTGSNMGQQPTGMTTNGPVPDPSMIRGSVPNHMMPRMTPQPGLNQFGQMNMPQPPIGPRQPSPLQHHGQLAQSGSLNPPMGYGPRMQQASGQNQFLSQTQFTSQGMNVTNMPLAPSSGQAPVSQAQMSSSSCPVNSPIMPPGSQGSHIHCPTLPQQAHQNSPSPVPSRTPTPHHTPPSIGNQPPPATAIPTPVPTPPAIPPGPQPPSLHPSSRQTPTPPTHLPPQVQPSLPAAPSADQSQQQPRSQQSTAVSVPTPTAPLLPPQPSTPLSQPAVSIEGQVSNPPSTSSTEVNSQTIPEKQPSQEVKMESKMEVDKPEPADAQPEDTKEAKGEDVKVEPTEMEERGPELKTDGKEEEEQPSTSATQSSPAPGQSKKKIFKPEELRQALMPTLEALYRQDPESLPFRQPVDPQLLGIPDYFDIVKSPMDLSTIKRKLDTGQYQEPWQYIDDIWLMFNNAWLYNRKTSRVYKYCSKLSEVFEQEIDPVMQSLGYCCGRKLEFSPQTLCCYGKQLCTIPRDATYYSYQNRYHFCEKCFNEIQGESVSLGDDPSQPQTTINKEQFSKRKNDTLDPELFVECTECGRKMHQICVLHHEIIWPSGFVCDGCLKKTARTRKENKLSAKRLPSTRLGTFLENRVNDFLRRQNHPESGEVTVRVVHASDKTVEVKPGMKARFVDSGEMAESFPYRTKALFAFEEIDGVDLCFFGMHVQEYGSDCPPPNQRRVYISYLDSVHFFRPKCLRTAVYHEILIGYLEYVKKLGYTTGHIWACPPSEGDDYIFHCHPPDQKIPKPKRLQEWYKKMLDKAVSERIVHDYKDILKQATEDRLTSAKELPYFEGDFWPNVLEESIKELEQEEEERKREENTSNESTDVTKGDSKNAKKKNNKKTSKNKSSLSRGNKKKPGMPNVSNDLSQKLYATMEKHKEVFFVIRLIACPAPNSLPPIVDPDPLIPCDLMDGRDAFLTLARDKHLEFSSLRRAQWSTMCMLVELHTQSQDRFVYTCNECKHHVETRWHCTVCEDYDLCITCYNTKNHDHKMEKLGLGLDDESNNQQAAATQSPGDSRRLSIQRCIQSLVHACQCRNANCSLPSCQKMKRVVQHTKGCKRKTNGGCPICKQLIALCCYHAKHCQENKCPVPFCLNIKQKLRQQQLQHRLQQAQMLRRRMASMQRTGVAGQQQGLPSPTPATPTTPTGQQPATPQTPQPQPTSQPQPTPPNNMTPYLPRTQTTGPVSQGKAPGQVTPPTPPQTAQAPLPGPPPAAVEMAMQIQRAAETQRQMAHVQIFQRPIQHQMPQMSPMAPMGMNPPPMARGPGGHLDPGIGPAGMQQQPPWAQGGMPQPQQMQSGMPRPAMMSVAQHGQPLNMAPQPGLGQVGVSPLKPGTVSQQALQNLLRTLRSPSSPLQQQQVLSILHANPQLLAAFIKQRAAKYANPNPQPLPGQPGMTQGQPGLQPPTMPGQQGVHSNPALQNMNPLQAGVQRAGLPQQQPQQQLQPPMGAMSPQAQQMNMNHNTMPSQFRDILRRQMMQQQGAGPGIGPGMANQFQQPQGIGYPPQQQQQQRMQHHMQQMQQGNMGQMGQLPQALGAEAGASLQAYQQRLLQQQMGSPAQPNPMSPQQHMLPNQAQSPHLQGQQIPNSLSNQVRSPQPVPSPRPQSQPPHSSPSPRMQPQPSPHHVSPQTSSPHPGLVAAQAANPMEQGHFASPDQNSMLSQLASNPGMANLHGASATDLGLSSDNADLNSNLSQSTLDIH

binding result: binds
B1: Lamin B1 (other, mouse, UniProt P14733 2-585, looked up)
chain: ATATPVQQQRAGSRASAPATPLSPTRLSRLQEKEELRELNDRLAVYIDKVRSLETENSALQLQVTEREEVRGRELTGLKALYETELADARRALDDTARERAKLQIELGKFKAEHDQLLLNYAKKESDLSGAQIKLREYEAALNSKDAALATALGDKKSLEGDLEDLKDQIAQLEASLSAAKKQLADETLLKVDLENRCQSLTEDLEFRKNMYEEEINETRRKHETRLVEVDSGRQIEYEYKLAQALHEMREQHDAQVRLYKEELEQTYHAKLENARLSSEMNTSTVNSAREELMESRMRIESLSSQLSNLQKESRACLERIQELEDMLAKERDNSRRMLSDREREMAEIRDQMQQQLSDYEQLLDVKLALDMEISAYRKLLEGEEERLKLSPSPSSRVTVSRASSSRSVRTTRGKRKRVDVEESEASSSVSISHSASATGNVCIEEIDVDGKFIRLKNTSEQDQPMGGWEMIRKIGDTSVSYKYTSRYVLKAGQTVTVWAANAGVTASPPTDLIWKNQNSWGTGEDVKVILKNSQGEEVAQRSTVFKTTIPEEEEEEEEEPIGVAVEEERFHQQGAPRASNKSC
notes: whole, on cells; Endogenous protein inside fixed, permeabilised LPS-stimulated mouse spleen B cells; It was detected through a DNA barcode-labeled antibody (clone L-5)
